Values belong to the molecule of their own block, whether it stands above or below them.
Experiments:
Assay type in all cases: binding
[1] = system: misfolded SOD1 variants (apo-SOD1^WT, holo-SOD1^WT, apo-SOD1^G93A, apo-SOD1^G85R); assay: ELISA of secreted scFv-Ab (supernatant of transfected HEK 293 cells) on SOD1 variants; conditions: FIG. 2, HEK 293 supernatant, anti-c-myc detection
Text: Binding of secreted scFv-Ab (as supernatant of HEK 293 cells transfected with the vector expressing scFv-Ab) to SOD1 variant (apo-SOD1^WT, holo-SOD1^WT, apo-SOD1^G93A, and apo-SOD1^G85R), was quantified by enzyme-linked immunosorbent assay (ELISA).
The inventors have constructed a single-chain fragment variable antibody (scFv-mAb), representing a hybrid protein that comprises both heavy and light chain variable Ig regions of the anti-β6/β7-loop mAb connected by a short flexible linker (linker length 15-20 amino acids). The advantages of single-chain antibody are its small size, low immunogenicity and increased half-life (due to the reduced clearance via Fc-mediated microglia phagocytosis), and the ability to be used in a gene delivery system, such as recombinant adeno-associated virus, AAV6, for intra- or extracellular expression. AAV vectors have a broad cell type tropism, provide stable and safe gene expression and minimize immune response. […] Recent advances in AAV vector engineering enabled these vectors (AAV9) to be injected directly IV to obtain efficient CNS expression DNA sequences encoding the scFv-Ab of the invention were further optimized in terms of the codon usage for expression in mammalian cells (e.g., murine). […]

apo-SOD1^WT = apo-SOD1^WT (Homo sapiens, UniProt P00441); assay: ELISA of hybridoma supernatants with SOD1 variants as coating antigens; conditions: WT in the absence of Cu2+ and Zn2+, similar to SOD1^G93A and SOD1^G85R
Text: (§1) FIGS. 1A-1B are an image and a graph showing (1A) the surface pocket shaped by the two β6/β7 loops (arrows) in the intact SOD1^WT dimer, and (1B) the results of enzyme linked immunosorbent assay (ELISA) of supernatants of several hybridoma clones expressing anti-β6/β7-loop monoclonal antibody (mAb) using SOD1 variants as coating antigens. NC—negative control. WT—wild type; apo—WT in the absence of metals (Cu^2+ and Zn^2+); holo—WT in the presence of metals (Cu^2+ and Zn^2+); G93A—Glycine at position 93 was substituted to Alanine; G85R—Glycine at position 85 was substituted to Arginine; antigen peptide—peptide used to produce the disclosed mAb.
(§2) The loss of stabilizing metals, especially Zn^2+ is considered as the primary event which triggers the noxious structural transformation of SOD1, ultimately resulting in amyloid aggregation. Therefore, it is possible that the exposure of the β6/β7 loop epitope represents an early manifestation of the SOD1 noxious misfolding, and it is a common feature for both SOD1^WT and fALS SOD1^MUT. This early β6/β7 loop epitope is fundamentally different from the late epitopes of misfolded SOD1 such as those exposed on the dimer interface upon SOD1 monomerization; they correspond to the advanced stages of SOD1 misfolding and are apparently irreversible.

holo-SOD1^WT = holo-SOD1^WT (Homo sapiens, UniProt P00441); assay: as above; conditions: apo-SOD1^WT saturated with Cu2+ and Zn2+ by dialysis
Text: as §1, §2

[2] = system: misfolded familial ALS (fALS) mutants of SOD1 (SOD1^G93A and SOD1^G85R); assay: as above; conditions: FIG. 1B, SOD1^G93A and SOD1^G85R vs intact SOD1^WT
Text: as §1, §2

Chain of apo-SOD1^WT (P00441 2-154 limits assumed): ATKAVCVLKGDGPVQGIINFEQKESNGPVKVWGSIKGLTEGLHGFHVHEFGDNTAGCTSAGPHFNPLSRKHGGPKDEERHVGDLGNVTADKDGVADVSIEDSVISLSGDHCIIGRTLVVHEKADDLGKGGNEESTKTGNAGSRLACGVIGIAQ
Chain of holo-SOD1^WT (P00441 2-154 limits assumed): as above

B1: scFv-Ab: single-chain fragment variable antibody: heavy and light chain variable regions of the anti-β6/β7-loop mAb joined by a flexible linker (protein)
scFv: QIQLVQSGPELKKPGESVSISCKASGYTFTDSAIHWVKQAPGKGLKYMGWINTYTGKPTYADDFKGRFVFSLEASASTAKLQISNLKSEDTATFFCARSVYSYDGTFYRYFLDAWGQGASVTVSSGGGGSGGGGSGGGGSDTVLTQSPALAVSPGEKVTISCRASESVSKHIHWFQQKSGQQPTLLIYLASSLESGVPARFSGSGSGTDFTLTIDPVEADDTATYYCQQSWNDPWTFGGGTKLELKGGGGS
modifications: left off: small tags and cut ends
notes: single-chain fragment variable antibody: heavy and light chain variable regions of the anti-β6/β7-loop mAb joined by a flexible linker
binding of scFv-Ab to SOD1 variants [1]: selectively recognizes misfolded SOD1 variants

mAb binding to holo-SOD1^WT (holo-SOD1^WT): completely abolished mAbs binding
B2: 6D12B10: rat monoclonal antibody against the β6/β7 loop of SOD1, raised with KLH-conjugated SE-21 peptide (antibody, V domains shown)
VH: QIQLVQSGPELKKPGESVSISCKASGYTFTDSAIHWVKQAPGKGLKYMGWINTYTGKPTYADDFKGRFVFSLEASASTAKLQISNLKSEDTATFFCARSVYSYDGTFYRYFLDAWGQGASVTVSS
VL: DTVLTQSPALAVSPGEKVTISCRASESVSKHIHWFQQKSGQQPTLLIYLASSLESGVPARFSGSGSGTDFTLTIDPVEADDTATYYCQQSWNDPWTFGGGTKLELK
recognition of metal-free apo-SOD1^WT (apo-SOD1^WT): recognized metal-free apo-SOD1^WT as misfolded protein | discrimination between the intact SOD1^WT and misfolded fALS mutants of SOD1 [2]: complete discrimination

Source: patent US12378324B2, “Anti superoxide dismutase 1 (SOD1) antibodies and use thereof” (B. G. NEGEV TECHNOLOGIES AND APPLICATIONS LTD., AT …, priority 2018, dated 2025)
